Results on one molecule are retold here after patent US20070172423A1, “Composition and method for modulating vasculogenesis for angiogenesis” (priority 1998, published 2007).

Test [1] deals with human microvascular endothelial cells (HMVEC). The test is described as follows: Cell migration assay, HMVEC. The class given is cell-based. The following applies: wounded monolayer, 20 hours, serum-free medium. How it is done: (§1) Cell migration assays were performed on growth arrested confluent HMVEC, BAEC or hSMC cells. Cell monolayers were wounded with a rubber policeman and washed with serum-free medium. Dishes were then incubated for 20 hours in serum-free medium containing VEGF165, PDGF-AA, (R&D Systems, Minneapolis USA) or PDGF-CC. Each assay included two dishes per condition and was repeated three times independently. Cells were photographed at 40× magnification, and migration percentage corresponding to the ratio between area of the cells and the total area of the wound (Biocom visiol@b 2000 version 4.52, San Diego). For HMVEC proliferation assay, cells were seeded in 96-well plates (5 wells per condition), and incubated with VEGF, PDGF-AA, or PDGF-CC (50 ng/ml) after serum starvation. After 7 days, viable cells were counted using the cell Titer-glo luminescent cell viability assay. For NIH-3T3 and hSMC proliferation assay, cells cultured in 96-well plates were serum-starved overnight, followed by treatment with growth factors at different concentrations. Two days later, cell numbers were counted and proliferation percentage calculated, using cells cultured in medium containing 10% serum as control. Aortic ring assay was performed as described 51. […] Aortic rings were analysed at day 9 of culturing. […]

Test [2] relates to bovine aorta endothelial cells (BAEC). Put plainly: Cell migration assay, BAEC. It counts as cell-based. The following applies: wounded monolayer, 20 hours, serum-free medium. The protocol: as §1
In another test the target is PDGF beta receptors (Homo sapiens, UniProt P09619). The test is described as follows: Binding of radiolabeled truncated PDGF-C to PAE-1 cells expressing PDGF beta receptors. More on the design: expressed in transfected cells; host or cells: porcine aortic endothelial (PAE-1) cells. The following applies: 125I-labeled protein, on ice 90 minutes. The protocol:
To assess the interactions between truncated PDGF-C and the PDGF alpha and beta receptors, truncated PDGF-C was tested for its capacity to bind to porcine aortic endothelial-1 (PAE-1) cells expressing PDGF alpha or beta receptors, respectively (Eriksson et al., EMBO J, 1992 11:543-550). The binding experiments were performed essentially as described in Heldin et al. (EMBO J, 1988 7:1387 1393). Five micrograms of truncated PDGF-C protein in ten microliters of sodium borate buffer was radiolabeled using the Bolton-Hunter reagent (Amersham) to a specific activity of 4×10^5 cpm/ng. Different concentrations of radiolabeled truncated PDGF-C, with or without added unlabeled protein, in binding buffer (PBS containing 1 mg/ml of bovine serum albumin) was added to the receptor expressing PAE-1 cells plated in 24-well culture dishes on ice for 90 minutes. After three washes with binding buffer, cell-bound ^125I-labeled PDGF-C was extracted by lysis of cells in 20 mM Tris-HCl, pH 7.5, 10% glycerol, 1% Triton X-100. The amount of cell-bound radioactivity was determined in a gamma-counter. Non-specific binding was estimated by including a 100-fold molar excess of truncated PDGF-C in some experiments. […] The binding was specific as radiolabeled PDGF-C was quantitatively displaced by a 100-fold molar excess of unlabeled protein.

The subject of another test is hSMC. The test is described as follows: Cell migration assay, hSMC. It counts as cell-based, human. The following applies: wounded monolayer, 20 hours. How it is done:
as §1, with “For HMVEC proliferation assay, cells were seeded in 96-well plates (5 wells per condition), and incubated with VEGF, PDGF-AA, or PDGF-CC (50 ng/ml) after serum starvation.” left out, “For NIH-3T3 and hSMC proliferation assay, cells cultured in 96-well plates were serum-starved overnight, followed by treatment with growth factors at different concentrations.” left out, “control.” for “control. Aortic ring assay was performed as described 51.”
The mitogenic and chemotactic effect of PDGF-CC was then tested on SMCs and perivascular fibroblast cells, and the effect of PDGF-CC was compared to that of VEGF and PDGF-AA in both cultured cells and the aortic ring assay (Blacher et al., Angiogenesis, 2001 4:133-42). […] In the aortic ring assay, we quantified the growth and emigration of perivascular fibroblasts from the intact vessel using computer-assisted image analysis after treatment with VEGF and different PDGFs at different concentrations. […]

Chain of PDGF beta receptors (P09619 33-1106): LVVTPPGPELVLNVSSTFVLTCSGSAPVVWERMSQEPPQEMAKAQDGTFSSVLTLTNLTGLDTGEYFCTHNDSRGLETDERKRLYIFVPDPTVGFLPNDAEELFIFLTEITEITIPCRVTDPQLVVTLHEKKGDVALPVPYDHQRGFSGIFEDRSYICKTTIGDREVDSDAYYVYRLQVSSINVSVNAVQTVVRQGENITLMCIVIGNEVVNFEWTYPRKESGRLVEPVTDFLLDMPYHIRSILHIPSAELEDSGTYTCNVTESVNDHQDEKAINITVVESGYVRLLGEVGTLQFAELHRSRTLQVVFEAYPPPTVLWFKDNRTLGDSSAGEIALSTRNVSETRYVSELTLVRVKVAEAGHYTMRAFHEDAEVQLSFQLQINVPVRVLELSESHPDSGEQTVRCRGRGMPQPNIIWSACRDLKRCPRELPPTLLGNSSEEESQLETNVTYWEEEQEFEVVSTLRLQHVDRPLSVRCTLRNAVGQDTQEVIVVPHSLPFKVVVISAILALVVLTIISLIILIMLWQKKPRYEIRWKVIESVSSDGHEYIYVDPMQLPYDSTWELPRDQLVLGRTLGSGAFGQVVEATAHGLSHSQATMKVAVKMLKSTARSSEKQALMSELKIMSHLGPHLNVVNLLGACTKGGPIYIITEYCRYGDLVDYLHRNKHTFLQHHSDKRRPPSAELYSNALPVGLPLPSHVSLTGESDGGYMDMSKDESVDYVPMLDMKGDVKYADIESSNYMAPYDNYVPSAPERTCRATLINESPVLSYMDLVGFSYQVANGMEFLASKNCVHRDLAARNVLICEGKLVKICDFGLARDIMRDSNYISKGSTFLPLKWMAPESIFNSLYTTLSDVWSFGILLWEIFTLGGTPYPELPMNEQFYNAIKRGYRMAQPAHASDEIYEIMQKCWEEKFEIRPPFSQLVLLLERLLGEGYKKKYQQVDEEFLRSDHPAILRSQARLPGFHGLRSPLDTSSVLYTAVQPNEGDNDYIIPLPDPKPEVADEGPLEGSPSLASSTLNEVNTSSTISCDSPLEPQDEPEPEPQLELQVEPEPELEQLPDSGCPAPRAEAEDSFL

B1: PDGF-CC: recombinant human PDGF-CC core domain homodimer, residues 230-345 of full-length PDGF-C (SEQ ID NO:40), produced in baculovirus infected insect cells (protein)
chain: GRKSRVVDLNLLTEEVRLYSCTPRNFSVSIREELKRTDTIFWPGCLLVKRCGGNCACCLHNCNECQCVPSKVTKKYHEVLQLRPKTGVRGLHKSLTDVALEHHEECDCVCRGSTGG
modifications: homodimer; PDGF-C core domain
As for B1, the “migration of HMVECs” value in test [1] is “stimulated”. Also, the “migration of BAEC” value in test [2] was “enhanced”. In addition, the “binding to beta receptor expressing cells” value with PDGF beta receptors is given as “not”. For the same molecule, the hSMC migration entry in the test with hSMC is “stimulated”.
